Data on 4 molecules can be found in patent US20010052137A1, “Axin domain-like polypeptide inhibitors of glycogen synthase kinase 3 beta activity and activators of wnt signaling” (Trustees of the University of Pennsylvania, priority 2000, published 2001).

For one assay, the target named is T1, FL Xaxin (Xenopus laevis, UniProt Q9YGY0).
T1 construct: expressed in transfected cells; host or cells: Saccharomyces cerevisiae
In words: Yeast two hybrid assay, interaction with FL Xaxin. As to conditions: beta-galactosidase filter assay in S. cerevisiae. The class given is binding. From the text:
FL Xaxin was cloned in frame with the GAL4 DNA binding domain (BD) in plasmid pAS2-1 (Clontech) to yield BD plasmid. Expression of BD plasmid yielded a Xaxin-GAL4 fusion protein. FL Xaxin, deltaDIX Xaxin, and a fragment (designated “AID”) encoding amino acid residues 489-777 of Xaxin were cloned in frame with the GAL4 transcriptional activation domain (AD) in the vector pACT2 to yield AD plasmids. Yeast were transformed with BD and AD plasmids using previously described protocols (Clontech, Palo Alto, Calif.). Transformed colonies were selected and assayed for beta-galactosidase activity in order to detect interacting proteins. In addition, three Xenopus axin partial length cDNAs (designated Y2H 2, Y2H 6, Y2H 7; all in plasmid pACT2) isolated from a previous yeast two hybrid screen (Hedgepeth et al., 1999, Mech. Develop. 80:147-151) were analyzed. Purification of GID
Using the yeast two hybrid assay, the ability of axin to bind with itself, with other members of the wnt pathway, or with the G(alpha)q subunit of heterotrimeric G-proteins, was investigated. […]
Saccharomyces cerevisiae cells were transformed with the bait vector and with one of the target vectors. Interaction was assessed using a filter assay to detect beta-galactosidase activity, as described (Fields et al., 1989, Nature 340:245-247; Harper et al., 1993, Cell 75:805-816). […]

Assay [1] concerns GSK-3 beta. In words: In ovo tau phosphorylation assay: GSK-3 beta and Xaxin constructs co-expressed in Xenopus oocytes. The settings on record: construct co-expressed with GSK-3 beta in Xenopus oocytes; tau microinjected; PHF-1 immunoblot. In kind it is cell-based. The procedure:
Stage VI Xenopus oocytes were isolated by collagenase treatment (Smith et al., 1994, Meth. Cell Biol. 36:45-58) and were injected with mRNA prepared by in vitro transcription (mMessage Machine™; Ambion, Austin, Tex.). 10 nanoliters of mRNA (containing 1-2 nanograms per nanoliter) was injected for each construct (unless otherwise specified), and the injected oocytes were incubated for 16 hours at 18° C. To analyze the effects of Xaxin constructs on dorsal-ventral pattern formation, Xenopus embryos were injected with 10 nanoliters of mRNA (0.1-0.2 nanogram per nanoliter) into one dorsal or ventral cell of a 4 cell embryo and dorsal axes were assessed at the tadpole stage. For Xaxin co-immunoprecipitation, fertilized eggs were injected with 10 nanoliters of Xaxin tagged with Myc, with hemagglutinin, or with both Myc and hemagglutinin (1 nanogram per nanoliter) and harvested at the blastula stage (stage 8).
(§1) In ovo phosphorylation of tau by GSK-3 beta was performed by microinjection of tau protein into oocytes expressing GSK-3 beta and Xaxin constructs. After 90 minutes, oocytes were homogenized and tau phosphorylation was analyzed in western blots using phospho-specific antibodies as described (Hedgepeth et al., 1997, Develop. Biol. 185:82-91). In vitro assays for GSK-3 beta activity were performed as described (Klein et al., 1996, Proc. Natl. Acad. Sci. USA 93:8455-8459). Recombinant GID-2/his protein (described below) was purified by affinity chromatography and added to in vitro assays at selected concentrations.
In the experiments presented in this example, a tau phosphorylation assay (described in Hedgepeth et al., 1997, Develop. Biol. 185:82-91) was used to examine the activity of GSK-3 beta in Xenopus oocytes in the presence of full length axin and axin deletion mutants. […] Furthermore, GSK-3 beta-dependent tau phosphorylation occurs in oocytes at the same sites (tau serine residues 396 and 404) that are phosphorylated by GSK-3 beta in vitro and occurs with similarly rapid kinetics.
GSK-3 beta was expressed in oocytes together with Myc-tagged full length Xaxin or with the amino-terminal (amino acid residues 63-288), GID-1 (amino acid residues 277-545), or carboxyl-terminal (amino acid residues 429-713) fragments of Xaxin, as depicted in FIG. 1A. Purified tau protein was then microinjected into the oocytes, and phosphorylation of tau was measured by immunoblotting using antibody PHF-1 or with antibodies that detect all (i.e. phosphorylated and non-phosphorylated) forms of tau.
In order to identify the domain of axin necessary for GSK-3 beta binding, multiple Myc-tagged GID deletion constructs (shown diagrammatically in FIG. 3A) were individually expressed in Xenopus oocytes in which GSK-3 beta was also expressed. Tau protein was microinjected into the oocytes, and immunoblotting was performed using phosphorylation-state-specific tau antibodies. A parallel group of oocytes expressing GSK-3 beta and the Myc-tagged GID deletion constructs were lysed, and GID proteins were immunoprecipitated using a Myc-specific antibody. The presence or absence of GSK-3 beta in GID immunoprecipitates was detected using GSK-3 beta-specific antibodies. GID deletion constructs which included amino acid residues 380-404 of Xaxin (i.e. constructs GID-1, GID-2, GID-4, GID-5, and GID-6) bound GSK-3 beta and inhibited GSK-3 beta mediated tau phosphorylation, as indicated in FIG. 3A. […] However, changing leucine residue 392 in FIG. 3B to proline abolishes its activity.
Background: A western blot detects proteins with antibodies after separation by electrophoresis.

Assay [2] deals with GSK-3 beta. In words: Co-immunoprecipitation of GSK-3 beta with Myc-tagged Xaxin constructs in Xenopus oocytes. In kind it is binding. As to conditions: Myc-tagged construct co-expressed with GSK-3 beta in Xenopus oocytes; anti-Myc IP, anti-GSK-3 beta blot.
The subject of another assay is beta-catenin. In words: beta-catenin protein accumulation in Xenopus oocytes (immunoblot). In kind it is cell-based. The settings on record: construct mRNA expressed in Xenopus oocytes. The procedure: FIG. 2A is an image of an immunoblot of Xenopus cytoplasmic extracts obtained from Xenopus embryos in which beta-catenin was expressed, using an antibody which binds specifically with beta-catenin (described in McCrea et al., 1993, J. Cell. Biol. 123:477-84). The embryo corresponding to lane 2 was incubated in the presence of 20 millimolar LiCI. Extracts corresponding to lanes 3-5, 7, and 8 were obtained from embryos in which full-length (lane 8) Xaxin or the C-term (lane 3), GID1 (“GID”; lanes 4 and 7), or N-term (lane 5) fragments of Xaxin were expressed.
Although endogenous GSK-3 beta is not present at sufficient levels to detect using the tau assay, inhibition of GSK-3 beta is known to cause stabilization of cytoplasmic beta-catenin (Cadigan et al., 1997, Genes Dev. 11:3286-3305; Miller et al., 1996, Genes Develop. 10:2527-2539), and this serves as a widely used assay for downstream activation of wnt signaling. Inhibition of endogenous GSK-3 beta activity also causes stabilization of beta-catenin in Xenopus embryos and oocytes (Hedgepeth et al., 1997, Develop. Biol. 185:82-91; Yost et al., 1998, Cell 93:1031-1041; Yost et al., 1996, Genes Develop. 10:1443-1454). For this reason, levels of beta-catenin protein were assessed in Xenopus oocytes which had been injected either with full length Xaxin mRNA or with mRNA encoding one of the amino-terminal, GID, or carboxyl-terminal domains of Xaxin.

For the next assay, the system named is Xenopus embryos. In words: Dorsal axis duplication / dorsalization in Xenopus embryos after mRNA injection. The class given is in vivo. The settings on record: construct expressed in embryos, injection side not stated.
The subject of assay [3] is GSK-3 beta. In words: In vitro GSK-3 beta activity assay with purified GID-2/his. In kind it is biochemical. How it is done: as §1
A cDNA (GID-2) encoding amino acid residues 320-429 of Xaxin was cloned into pET29b (Novagen, Madison, Wis.) in frame with the His-epitope tag. The resulting encoded GID-2/his fusion protein was expressed in BL2I/DE3 cells and purified on nickel agarose according to standard procedures. […]
(§2) GSK-3 beta (25 nanomolar) was incubated with GID-2/his (up to 200-fold molar excess), and each mixture was assayed to detect either protein kinase activity or, in parallel, protein-protein interaction. Interaction between GSK-3 beta and GID-2/his was detected by purification on nickel agarose followed by immunoblotting with GSK-3 beta-specific antibodies. […]

Assay [4] relates to GSK-3 beta. In words: In vitro binding of GSK-3 beta to GID-2/his on nickel agarose. The settings on record: 25 nanomolar GSK-3 beta. How it is done: A cDNA (GID-2) encoding amino acid residues 320-429 of Xaxin was cloned into pET29b (Novagen, Madison, Wis.) in frame with the His-epitope tag. The resulting encoded GID-2/his fusion protein was expressed in BL2I/DE3 cells and purified on nickel agarose according to standard procedures. Purified GID-2/his was added to a reaction cocktail having a final volume of 20 microliters and containing 25 nanomolar recombinantly-generated GSK-3 beta in GSK-3 assay buffer, as described (Klein et al., 1996, Proc. Natl. Acad. Sci. USA 93:8455-8459). This reaction mixture was incubated at 0° C. for one hour. After this incubation period, half of the mixture was assayed for GSK-3 beta activity, and the other half was incubated with nickel-agarose at 4° C. for one hour with rotation. The agarose was washed three times using PBS, and then Laemmli sample buffer was added. The samples were boiled for five minutes and then subjected to immunoblotting using anti-GSK-3 beta antibody.
as §2

T1 sequence (Q9YGY0 whole entry): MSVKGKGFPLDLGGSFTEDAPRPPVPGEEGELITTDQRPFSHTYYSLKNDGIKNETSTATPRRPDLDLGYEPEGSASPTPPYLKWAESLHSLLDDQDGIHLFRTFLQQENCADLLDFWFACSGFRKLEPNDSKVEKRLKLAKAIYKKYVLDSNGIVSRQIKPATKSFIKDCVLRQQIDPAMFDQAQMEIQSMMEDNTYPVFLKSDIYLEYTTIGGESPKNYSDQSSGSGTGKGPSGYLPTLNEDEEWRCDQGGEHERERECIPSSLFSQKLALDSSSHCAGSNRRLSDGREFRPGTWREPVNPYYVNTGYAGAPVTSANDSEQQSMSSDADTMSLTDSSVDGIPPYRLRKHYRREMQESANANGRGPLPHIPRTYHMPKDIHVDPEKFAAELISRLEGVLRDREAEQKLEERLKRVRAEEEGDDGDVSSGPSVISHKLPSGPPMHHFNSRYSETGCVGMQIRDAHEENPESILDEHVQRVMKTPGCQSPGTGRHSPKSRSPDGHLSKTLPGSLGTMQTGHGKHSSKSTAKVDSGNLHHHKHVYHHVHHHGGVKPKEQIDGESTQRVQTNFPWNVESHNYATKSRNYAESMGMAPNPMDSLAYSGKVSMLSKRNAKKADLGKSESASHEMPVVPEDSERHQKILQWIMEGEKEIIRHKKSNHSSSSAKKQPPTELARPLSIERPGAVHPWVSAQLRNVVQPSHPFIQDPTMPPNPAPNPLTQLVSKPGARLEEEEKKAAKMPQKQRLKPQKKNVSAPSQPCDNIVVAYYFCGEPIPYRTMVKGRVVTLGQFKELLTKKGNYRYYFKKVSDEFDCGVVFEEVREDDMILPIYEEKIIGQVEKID

B1: AID: fragment of amino acid residues 489-777 of Xaxin, axin self-interaction domain (protein)
chain: PGTGRHSPKSRSPDGHLSKTLPGSLGTMQTGHGKHSSKSTAKVDSGNLHHHKHVYHHVHHHGGVKPKEQIDGESTQRVQTNFPWNVESHNYATKSRNYAESMGMAPNPMDSLAYSGKVSMLSKRNAKKADLGKSESASHEMPVVPEDSERHQKILQWIMEGEKEIIRHKKSNHSSSSAKKQPPTELARPLSIERPGAVHPWVSAQLRNVVQPSHPFIQDPTMPPNPAPNPLTQLVSKPGARLEEEEKKAAKMPQKQRLKPQKKNVSAPSQPCDNIVVAYYFCGEPIPYR
modifications: left off: large carriers
Turning to B1, in the assay with FL Xaxin, the “interaction with FL Xaxin (self-interaction)” value is on record as “sufficient to mediate axin self-interaction”.

B2: carboxyl-terminal fragment: Myc-tagged fragment, amino acid residues 429-713 of Xaxin (protein)
chain: SGPSVISHKLPSGPPMHHFNSRYSETGCVGMQIRDAHEENPESILDEHVQRVMKTPGCQSPGTGRHSPKSRSPDGHLSKTLPGSLGTMQTGHGKHSSKSTAKVDSGNLHHHKHVYHHVHHHGGVKPKEQIDGESTQRVQTNFPWNVESHNYATKSRNYAESMGMAPNPMDSLAYSGKVSMLSKRNAKKADLGKSESASHEMPVVPEDSERHQKILQWIMEGEKEIIRHKKSNHSSSSAKKQPPTELARPLSIERPGAVHPWVSAQLRNVVQPSHPFIQDPTMPPN
modifications: left off: small tags and cut ends
notes: Myc-tagged fragment, amino acid residues 429-713 of Xaxin
For the molecule B2, the “GSK-3 beta-mediated tau phosphorylation (GSK-3 beta activity)” value in the assay on GSK-3 beta [1] is on record as “no effect”. In addition, the “binding with GSK-3 beta (co-immunoprecipitation)” value with GSK-3 beta [2] is recorded as “Neither the amino- nor carboxyl-terminal fragments of axin bound”. Besides, the accumulation of beta-catenin result in the assay with beta-catenin was “not observed”. The “effect on axial development / axis formation” value with Xenopus embryos is “no apparent effect”.

B3: GID-2/his: His-tagged fusion protein of Xaxin residues 320-429, expressed in E. coli and purified on nickel agarose (protein)
chain: DSEQQSMSSDADTMSLTDSSVDGIPPYRLRKHYRREMQESANANGRGPLPHIPRTYHMPKDIHVDPEKFAAELISRLEGVLRDREAEQKLEERLKRVRAEEEGDDGDVSS
modifications: left off: small tags and cut ends
notes: His-tagged fusion protein of Xaxin residues 320-429, expressed in E. coli and purified on nickel agarose
As to B3, in the assay on GSK-3 beta [3] (25 nanomolar GSK-3 beta, GID-2/his up to 200-fold molar excess), the “GSK-3 beta mediated phosphorylation of the GS-2 peptide” value is listed as “no significant effect”. For the same molecule, in the assay with GSK-3 beta [3] (GID-2/his at a 200-fold molar excess), the “phosphorylation of tau by GSK-3 beta in vitro” value is reported as “did not inhibit”. Moreover, in the assay with GSK-3 beta [4], the “binding of GSK-3 beta (nickel agarose, immunoblot)” value was “bound specifically”.

B4: amino-terminal fragment: Myc-tagged fragment, amino acid residues 63-288 of Xaxin (protein)
chain: RPDLDLGYEPEGSASPTPPYLKWAESLHSLLDDQDGIHLFRTFLQQENCADLLDFWFACSGFRKLEPNDSKVEKRLKLAKAIYKKYVLDSNGIVSRQIKPATKSFIKDCVLRQQIDPAMFDQAQMEIQSMMEDNTYPVFLKSDIYLEYTTIGGESPKNYSDQSSGSGTGKGPSGYLPTLNEDEEWRCDQGGEHERERECIPSSLFSQKLALDSSSHCAGSNRRLSD
modifications: left off: small tags and cut ends
notes: Myc-tagged fragment, amino acid residues 63-288 of Xaxin
Consider B4, for which the “GSK-3 beta-mediated tau phosphorylation (GSK-3 beta activity)” value in the assay on GSK-3 beta [1] is reported as “no effect”. In addition, the “binding with GSK-3 beta (co-immunoprecipitation)” value in the assay with GSK-3 beta [2] is recorded as “Neither the amino- nor carboxyl-terminal fragments of axin bound”. Besides, in the assay on beta-catenin, the accumulation of beta-catenin entry is “not observed”. Also, the “effect on axial development / axis formation” value in the assay with Xenopus embryos is “no apparent effect”.
